Our source for the stoichiometry N values is PMC9510068.

The term stoichiometry N denotes a count of units in the complex or per binding partner.

The target of this test is Bac S-2P (S-2P from the baculovirus-insect cell expression system, TN-5B1-4 cells) (SARS-CoV-2). Briefly: negative-stain EM.

As for “Bac S-2P (S-2P from the baculovirus-insect cell expression system, TN-5B1-4 cells) (domain or fragment)”, the stoichiometry N came to 3.
